Assay results from patent US20240261333A1, “NOVEL TARGETS FOR ENHANCING ANTI-TUMOR IMMUNITY” (THE BROAD INSTITUTE, INC., priority 2021, published 2024).

T1: B3GNT2 (Homo sapiens, UniProt Q9NY97)
T1 construct: The respective ORFs of candidate genes [CD274 (NM_014143), MCL1 (NM_021960), JUNB (NM_002229), and B3GNT2 (NM_006577)] were synthesized; expressed in transfected cells; host or cells: A375 melanoma cells (lentiviral ORF overexpression)
T1 sequence (Q9NY97 1-397): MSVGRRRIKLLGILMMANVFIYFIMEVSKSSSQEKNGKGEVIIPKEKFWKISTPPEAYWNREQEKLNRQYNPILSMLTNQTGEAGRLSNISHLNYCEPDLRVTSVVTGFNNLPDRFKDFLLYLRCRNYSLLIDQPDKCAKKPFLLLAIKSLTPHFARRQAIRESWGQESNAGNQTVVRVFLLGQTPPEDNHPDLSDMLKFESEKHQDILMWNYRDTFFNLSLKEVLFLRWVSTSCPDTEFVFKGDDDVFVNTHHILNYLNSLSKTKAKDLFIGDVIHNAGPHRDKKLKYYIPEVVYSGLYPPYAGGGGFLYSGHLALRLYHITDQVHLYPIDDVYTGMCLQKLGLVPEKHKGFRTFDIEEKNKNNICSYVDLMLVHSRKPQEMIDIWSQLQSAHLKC


Molecular target: T1, B3GNT2
Assay: Co-IP of FLAG-tagged B3GNT2 followed by mass spectrometry
Format: cell-based
Parameters: C-term IgG / C-term flag: unit not given here
Settings: mass spectrometry count, unit not given; for C-term flag / N-term FLAG: Co-IP with FLAG antibody; for C-term flag / C-term IgG: C-terminally FLAG-tagged B3GNT2; for N-term FLAG / N-term IgG: N-terminally FLAG-tagged B3GNT2; for C-term IgG / N-term IgG: Co-IP with IgG control antibody
In short: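 Co-purifying proteins were identified by fractionated nano-LC–MS/MS on an Orbitrap Elite, run data-dependent. Beforehand, lysates in 1% Triton X-100/HEPES buffer were incubated overnight at 4° C with anti-FLAG or […] and pulled down on Protein A/G magnetic beads for 4 h. Duplicate biological replicates.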

| C-term flag | N-term FLAG | C-term IgG | N-term IgG | Molecule |
| --- | --- | --- | --- | --- |
| 4 | 3 | 0 | 0 | ZC3HAV1 (protein, UniProt Q7Z2W4 2-902, looked up) Zinc finger CCCH-type …: ADPEVCCFITKILCAHGGRMALDALLQEIALSEPQLCEVLQVAGPDRFVVLETGGEAGITRSVVATTRARVCRRKYCQRPCDNLHLCKLNLLGRCNYSQSERNLCKYSHEVLSEENFKVLKNHELSGLNKEELAVLLLQSDPFFMPEICKSYKGEGRQQICNQQPPCSRLHICDHFTRGNCRFPNCLRSHNLMDRKVLAIMREHGLNPDVVQNIQDICNSKHMQKNPPGPRAPSSHRRNMAYRARSKSRDRFFQGSQEFLASASASAERSCTPSPDQISHRASLEDAPVDDLTRKFTYLGSQDRARPPSGSSKATDLGGTSQAGTSQRFLENGSQEDLLHGNPGSTYLASNSTSAPNWKSLTSWTNDQGARRKTVFSPTLPAARSSLGSLQTPEAVTTRKGTGLLSSDYRIINGKSGTQDIQPGPLFNNNADGVATDITSTRSLNYKSTSSGHREISSPRIQDAGPASRDVQATGRIADDADPRVALVNDSLSDVTSTTSSRVDDHDSEEICLDHLCKGCPLNGSCSKVHFHLPYRWQMLIGKTWTDFEHMETIEKGYCNPGIHLCSVGSYTINFRVMSCDSFPIRRLSTPSSVTKPANSVFTTKWIWYWKNESGTWIQYGEEKDKRKNSNVDSSYLESLYQSCPRGVVPFQAGSRNYELSFQGMIQTNIASKTQKDVIRRPTFVPQWYVQQMKRGPDHQPAKTSSVSLTATFRPQEDFCFLSSKKYKLSEIHHLHPEYVRVSEHFKASMKNFKIEKIKKIENSELLDKFTWKKSQMKEEGKLLFYATSRAYVESICSNNFDSFLHETHENKYGKGIYFAKDAIYSHKNCPYDAKNVVMFVAQVLVGKFTEGNITYTSPPPQFDSCVDTRSNPSVFVIFQKDQVYPQYVIEYTEDKACVIS |
| 42 | 63 | 0 | 0 | TUBB6 (protein) MREIVHIQAGQCGNQIGTKFWEVISDEHGIDPAGGYVGDSALQLERINVYYNESSSQKYVPRAALVDLEPGTMDSVRSGPFGQLFRPDNFIFGQTGAGNNWAKGHYTEGAELVDAVLDVVRKECEHCDCLQGFQLTHSLGGGTGSGMGTLLISKIREEFPDRIMNTFSVMPSPKVSDTVVEPYNATLSVHQLVENTDETYCIDNEALYDICFRTLKLTTPTYGDLNHLVSATMSGVTTSLRFPGQLNADLRKLAVNMVPFPRLHFFMPGFAPLTSRGSQQYRALTVPELTQQMFDARNMMAACDPRHGRYLTVATVFRGPMSMKEVDEQMLAIQSKNSSYFVEWIPNNVKVAVCDIPPRGLKMASTFIGNSTAIQELFKRISEQFSAMFRRKAFLHWFTGEGMDEMEFTEAESNMNDLVSEYQQYQDATANDGEEAFEDEEEEIDG |
